Measurements taken from publication doi:10.1101/2024.11.05.621662 (bioRxiv, 2024).

Molecular target: the molecule itself
Assay: SEC-MALS

B1: TFG PB1 domain (amino acids 1-96), wild type (domain or fragment, human, UniProt Q92734 1-96, looked up)
chain: MNGQLDLSGKLIIKAQLGEDIRRIPIHNEDITYDELVLMMQRVFRGKLLSNDEVTIKYKDEDGDLITIFDSSDLSFAIQCSRILKLTLFVNGQPRP
stoichiometry N: 8
